# Laboratory results published in article PMC11169542, “A probe for NIR-II imaging and multimodal analysis of early Alzheimer’s disease by targeting CTGF” (Nature Communications, 2024).
# Ends that are not written are not given here.
# Tests used:
# CTGF [1] = target: T1, CTGF (Mus musculus, UniProt P29268); assay: DGC fluorescence labelling of AD mouse brain sections in vitro; parameters: species or system APP/PS1 and wild-type C57BL/6J mice; settings: 200 μM DGC 4 °C overnight
# T1 construct: brain sections of the age-matched wild-type C57BL/6J mice were used as controls; from tissue; host or cells: brain of APP/PS1 transgenic and wild-type C57BL/6J mice (sections, living animal, perfused isolated brain)
# T1 sequence (P29268 26-348): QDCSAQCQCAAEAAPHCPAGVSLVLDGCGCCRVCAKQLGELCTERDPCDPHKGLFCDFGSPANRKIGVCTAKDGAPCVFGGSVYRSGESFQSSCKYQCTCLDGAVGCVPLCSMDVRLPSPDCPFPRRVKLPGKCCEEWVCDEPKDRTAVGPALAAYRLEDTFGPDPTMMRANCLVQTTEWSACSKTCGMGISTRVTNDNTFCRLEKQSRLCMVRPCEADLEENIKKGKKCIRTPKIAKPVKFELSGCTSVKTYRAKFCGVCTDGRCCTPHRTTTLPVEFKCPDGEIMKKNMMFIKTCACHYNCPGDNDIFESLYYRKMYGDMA
# Description: To evaluate the expression of CTGF in the brain of AD mice and the efficacy of DGC in vitro, brain sections of APP/PS1 transgenic mice (derived from C57BL/6J) from 1-month to 9-month-old (1-, 2-, 3-, 6- and 9-month-old, female, n = 3) were used as AD model, and brain sections of the age-matched wild-type C57BL/6J mice were used as controls (female, n = 3). The brain sections were subjected to CTGF antibody immunofluorescence staining and DGC fluorescence imaging. The brains were collected and fixed with 4% PFA. The embedded brain was then sectioned using a microtome into 5-μm thick consecutive sections. The brain sections were immersed in Tris-EDTA buffer (pH = 9.0) at 95 °C for 15 min. The brain sections were then incubated with 3% bovine serum albumin for 1.5 h. Then, the brain sections were stained overnight at 4 °C with an anti-CTGF primary antibody (dilution 1:50, Abcam, Cat#ab6992). After restoring room temperature, they were washed with TBST (pH = 7.4, 3 × 5 min) and incubated with FITC-labeled Goat Anti-Rabbit IgG (h +L) (1: dilution 1:200, Bioss, Cat#bs-0370R-FITC) for 1 h. The brain sections were washed with TBST (pH = 7.4, 3 × 5 min). Finally, overnight staining with DGC (200 μM) at 4 °C and fluorescence imaging were obtained by the CLSM system.
# Brain sections from female APP/PS1 double transgenic mice were used as AD models, and brain sections of the age-matched female wild-type C57BL/6J mice were used as controls to evaluate the availability of DGC in vitro. Three-month-old APP/PS1 mice (early-stage, unestablished Aβ plaques) and 9-month-old APP/PS1 mice (late-stage, established Aβ plaques) were chosen for comparison. All mice were purchased from Beijing HFK Bioscience Co., Ltd and handled in accordance with the Ethics Committee of Beijing University of Technology, China. To avoid the interference of strong background fluorescence signals of blood in cerebral microvessels, the blood vessels were emptied by cardiac perfusion with saline and PFA before dissociating the brain. After the completion of perfusion, the brain was collected and fixed with PFA for a longer time ex vivo. The embedded brain was then sectioned using a microtome into 5-μm thick continuous sections. The brain sections were labeled with DGC or CTGF, GFAP, and Aβ antibodies. Deparaffinization was performed first and antigen retrieval was implemented with immersion of the brain sections into Tris-EDTA buffer (pH = 9.0) at 95 °C for 15 min. Then, the brain sections were incubated with 3% bovine serum albumin for 1.5 h.
# For fluorescence imaging of CTGF, the brain sections were stained with anti-CTGF primary antibody (dilution 1:50, Abcam, Cat#ab6992), anti-glial fibrillary acidic protein (GFAP) primary antibody (diluted 1:400, Proteintech, Cat#16825-1-AP) or anti-Aβ 17-24 (4G8, diluted 1:1000, BioLegend, Cat#SIG-39200) at 4 °C for 4 h. After they were washed by TBST (pH = 7.4, 3 × 5 min) at room temperature, the brain sections were incubated with the secondary antibody (FITC-labeled Goat Anti-Rabbit IgG (H + L) (1: dilution 1:200, Bioss, Cat#bs-0370R-FITC) for 1 h. After the brain sections were washed by TBST (pH = 7.4, 3 × 5 min). Finally, the brain sections were co-stained by DGC (200 μM) at 4 °C overnight, and the staining results were acquired on the CLSM system.
# CTGF [2] = target: T2, CTGF (Homo sapiens, UniProt P29279); assay: Affinity between DGC/DAG and CTGF protein by SPR (BIAcore); format: binding; parameters: purchased Abcam ab283457; settings: ratio of SPR KD values
# T2 sequence (P29279 27-349): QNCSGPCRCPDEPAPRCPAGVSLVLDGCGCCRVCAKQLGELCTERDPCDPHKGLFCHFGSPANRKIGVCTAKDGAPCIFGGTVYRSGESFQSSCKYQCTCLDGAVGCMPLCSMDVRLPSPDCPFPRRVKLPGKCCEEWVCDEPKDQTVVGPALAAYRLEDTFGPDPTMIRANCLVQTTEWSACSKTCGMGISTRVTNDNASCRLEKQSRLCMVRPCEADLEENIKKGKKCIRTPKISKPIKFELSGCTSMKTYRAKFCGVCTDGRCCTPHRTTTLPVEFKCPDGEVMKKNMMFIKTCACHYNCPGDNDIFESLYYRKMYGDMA
# Procedure: Real-time binding and kinetic analyses by surface plasmon resonance (SPR) were performed on a BIAcore 8 K^+ instrument (Pharmacia Biosensor AB). The recombinant Human CTGF protein (Abcam, Cat#ab283457) was immobilized on a CM5 chip by using an amine coupling kit, and the remaining coupling sites were blocked with ethanolamine. The eluent contained PBS and 0.005% Tween 20. Binding was evaluated over a range of DAG (0.5–16 μM) or DGC (0.01– 0.16 μM) concentrations at 25 °C. Kinetic parameters were further determined with Biacore Insight Evaluation 3.0 software.
substance,measurement,setting,value
"DGC: CTGF-targeting peptide-coated gold nanocluster: one Au26 gold nanocluster coated by eight DAG cyclic peptides, NIR-II and red fluorescence (CDAGRKQKC; also: cyclic peptide, ring not given here, eight peptides on one Au26 nanocluster via Cys Au-S bonds)",FL intensity of DGC on brain section,"CTGF [1]; 3-month-old APP/PS1 mouse brain section, section 1",0.02124
same,FL intensity of DGC on brain section,"CTGF [1]; 3-month-old APP/PS1 mouse brain section, section 2",0.02275
same,FL intensity of DGC on brain section,"CTGF [1]; 3-month-old APP/PS1 mouse brain section, section 3",0.01511
same,FL intensity of DGC on brain section,"CTGF [1]; 9-month-old APP/PS1 mouse brain section, section 1",0.0369
same,FL intensity of DGC on brain section,"CTGF [1]; 9-month-old APP/PS1 mouse brain section, section 2",0.0329
same,FL intensity of DGC on brain section,"CTGF [1]; 9-month-old APP/PS1 mouse brain section, section 3",0.0406
same,FL intensity of DGC on brain section,"CTGF [1]; WT mouse brain section, section 1",0.00435
same,FL intensity of DGC on brain section,"CTGF [1]; WT mouse brain section, section 2",0.0071
same,FL intensity of DGC on brain section,"CTGF [1]; WT mouse brain section, section 3",0.0055
same,binding affinity of DGC to CTGF relative to free DAG peptide,CTGF [2],more than 1000 times
